For 2 substances, stoichiometry N results are on record in paper doi:10.1101/2019.12.17.879908.

For experiment [1], the target named is Dimethylformamidase (DMFase) large subunit expressed and purified without the small subunit (Paracoccus sp. strain DMF). Description: SEC. A general note: Size exclusion chromatography separates by hydrodynamic size, large species first.
Experiment [2] has as its target Dimethylformamidase (DMFase) α2β2 complex, recombinant wild type (Paracoccus sp. strain DMF). Description: cryo-EM structure.

The term stoichiometry N denotes a count of units in the complex or per binding partner.

“Dimethylformamidase (DMFase) large subunit expressed and purified without the small subunit (natural protein)” returned a stoichiometry N in experiment [1] of 2.

In the case of “Dimethylformamidase (DMFase) α2β2 complex, recombinant wild type”, the stoichiometry N in experiment [2] came out at 2.
